Data taken from patent publication US20110171242A1 (published 2011).
Residue numbers refer to the chain shown, from its start. Names and notes keep the numbering of the source.

B1: LTα homotrimer (ligand, UniProt P01374 35-205, looked up)
chain: LPGVGLTPSAAQTARQHPKMHLAHSTLKPAAHLIGDPSKQNSLLWRANTDRAFLQDGFSLSNNSLLVPTSGIYFVYSQVVFSGKAYSPKATSSPLYLAHEVQLFSSQYPFHVPLLSSQKMVYPGLQEPWLHSMYHGAAFQLTQGDQLSTHTDGIPHLVLSPSTVFFGAFAL
B2: human HVEM:Fc (Fc of human IgG1) (Fc fusion, UniProt Q92956 39-184, looked up)
chain: LPSCKEDEYPVGSECCPKCSPGYRVKEACGELTGTVCEPCPPGTYIAHLNGLSKCLQCQMCDPAMGLRASRNCSRTENAVCGCSPGHFCIVQDGDHCAACRAYATSSPGQRVQKGGTESQDTLCQNCPPGTFSPNGTLEECQHQTK
notes: range 1-184; Bivalent chimeric protein made with baculovirus vector pVL1392; also called huHVEM:Fc; hu HVEM:Fc; not shown: Fc region of human IgG1
B3: murine LTβR:Fc (Fc fusion, mouse, UniProt P50284 31-221, looked up)
chain: QLVPPYRIENQTCWDQDKEYYEPMHDVCCSRCPPGEFVFAVCSRSQDTVCKTCPHNSYNEHWNHLSTCQLCRPCDIVLGFEEVAPCTSDRKAECRCQPGMSCVYLDNECVHCEEERLVLCQPGTEAEVTDEIMDTDVNCVPCKPGHFQNTSSPRARCQPHTRCEIQGLVEAAPGTSYSDTICKNPPEPGAM
notes: range 1-221; Encoded range includes the signal peptide; also called muLTβR:Fc; mouse LTβR:Fc; not shown: Fc region; human IgG1 by the opening sentence of the paragraph, not restated for this construct
B4: LIGHTt66-FLAG (ligand, not shown: small tags and cut ends)
chain: EMVTRLPDGPAGSWEQLIQERRSHEVNPAAHLTGANSSLTGSGGPLLWETQLGLAFLRGLSYHDGALVVTKAGYYYIYSKVQLGGVGCPLGLASTITHGLYKRTPRYPEELELLVSQQSPCGRATSSSRVWWDSSFLGGVVHLEAGEEVVVRVLDERLVRLRDGTRSYFGAFMV
notes: also called soluble homotrimeric LIGHT; recombinant soluble LIGHT
B5: LIGHT t66 Q117T (ligand, not shown: small tags and cut ends)
chain: B4 chain with Q51T
notes: FLAG-tagged point mutant from transiently transfected 293T cells, homotrimer; also called Q11TT
B6: LIGHT t66 G119E (ligand, not shown: small tags and cut ends)
chain: B4 chain with G53E
notes: FLAG-tagged point mutant from transiently transfected 293T cells, homotrimer; also called LIGHTG119E; LIGHT-G119E
B7: LIGHT t66 Y173F (ligand, not shown: small tags and cut ends)
chain: B4 chain with Y107F
notes: FLAG-tagged point mutant from transiently transfected 293T cells, homotrimer
B8: LIGHT t66 L120Q (ligand, not shown: small tags and cut ends)
chain: B4 chain with L54Q
notes: FLAG-tagged point mutant from transiently transfected 293T cells, homotrimer; also called L12OQ
B9: p30 (LIGHT), the cell surface HVEM ligand of activated II-23.D7 cells and human T cells (ligand)
chain: MEESVVRPSVFVVDGQTDIPFTRLGRSHRRQSCSVARVGLGLLLLLMGAGLAWQGWFLLQLHWRLGEMVTRLPDGPAGSWEQLIQERRSHEVNPAAHLTGANSSLTGSGGPLLWETQLGLAFLRGLSYHDGALVVTKAGYYYIYSKVQLGGVGCPLGLASTITHGLYKRTPRYPEELELLVSQQSPCGRATSSSRVWWDSSFLGGVVHLEAGEEVVVRVLDERLVRLRDGTRSYFGAFMV
notes: see m1; also called 30 kDa protein; cell surface ligand for HVEM

Key:
[1] = molecular target: T1, TNFR1 on normal human dermal fibroblasts (human, UniProt P19438 30-455); test: cell-based or functional assay
T1 sequence (looked up): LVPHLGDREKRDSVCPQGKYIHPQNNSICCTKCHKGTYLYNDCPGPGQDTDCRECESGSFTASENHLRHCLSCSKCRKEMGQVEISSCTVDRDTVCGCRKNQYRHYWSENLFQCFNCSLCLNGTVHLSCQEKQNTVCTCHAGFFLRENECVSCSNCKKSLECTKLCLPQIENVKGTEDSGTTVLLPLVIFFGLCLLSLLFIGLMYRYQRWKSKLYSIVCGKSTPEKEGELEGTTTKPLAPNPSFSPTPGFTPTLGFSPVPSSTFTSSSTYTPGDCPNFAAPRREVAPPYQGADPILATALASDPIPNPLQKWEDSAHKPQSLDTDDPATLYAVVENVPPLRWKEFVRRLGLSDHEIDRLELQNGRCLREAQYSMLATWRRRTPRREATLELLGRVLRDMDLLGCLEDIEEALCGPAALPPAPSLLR

[2] = molecular target: B9; test: flow cytometry, graded HVEM:Fc on activated II-23.D7 cells
Procedure: II-23.D7 cells were activated for 4 hours at 37° C. with phorbol myristate acetate (PMA) (100 ng/ml), or PMA (100 ng/ml) and ionomycin (1 μg/ml). […] Stained cells were analyzed by flow cytometry (FACSCaliber, Becton-Dickenson). Receptor binding was determined by calculating the fluorescence intensity=(mean fluorescent channel) (% positive fluorescent events), where a positive event has a fluorescence value >98% of the value for normal IgG. Specific fluorescence intensity represents the fluorescence intensity after subtraction of the value for control IgG. Each histogram represents 10₄ events.

TNF = TNF (UniProt P01375 77-233); test: precipitation of 35S-labelled secreted proteins of activated II-23.D7 cells with receptor:Fc 10 µg/ml and protein G, SDS-PAGE
Procedure: The culture supernatants were harvested and the cells lysed in buffer containing 2% NP40, HEPES pH7.0, 20 mM EDTA, 150 mM NaCl with leupeptin and aprotinin (at 10 μg/ml), PMSF (1 mM) and iodoacetamide (20 mM). The extract was precleared with human IgG (10 μg), where indicated, anti-LT antibodies and protein G beads. The receptor:Fc fusion proteins (10 μg/ml) were then added to the samples and precipitated with protein G beads. Labeled proteins were analyzed by reducing SDS-PAGE and phosphoimage (pixel range 6-200).

LTα homotrimer = molecular target: B1; test: precipitation of 35S-labelled proteins with receptor:Fc and protein G, SDS-PAGE
[3] = molecular target: T2, LTα1β2 complex from II-23.D7 cells (human, UniProt P01374 35-205; Q06643 1-244); test: 2D electrophoresis of proteins bound to murine LTβR:Fc, FIG. 4A
T2 construct: also called LTβ (33 kDa) and LTα (23-25 kDa) complex
T2 sequence (looked up) 1: B1 chain
T2 sequence (looked up) 2: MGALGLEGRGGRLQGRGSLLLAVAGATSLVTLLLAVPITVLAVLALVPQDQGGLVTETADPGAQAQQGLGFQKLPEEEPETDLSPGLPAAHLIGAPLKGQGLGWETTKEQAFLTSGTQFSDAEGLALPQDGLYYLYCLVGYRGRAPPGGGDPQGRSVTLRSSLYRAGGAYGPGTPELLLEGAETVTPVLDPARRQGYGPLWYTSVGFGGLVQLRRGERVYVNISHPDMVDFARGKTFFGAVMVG

[4] = molecular target: B2; test: SPR (BIAcore 1000), receptor:Fc amine-coupled to CM5 chip, LIGHT as analyte 100-500 nM, 25 C
Procedure: (§1) The sensor surface was equilibrated with PBS (20 mM sodium phosphate/150 mM NaCl, pH 7.4) and sensorgrams were collected at 25° C. and a flow rate of 5 μl/min. […] The sensor surface was regenerated after each cycle with a 10 μl pulse of 10 mM glycine pH 2.0. Sets of 5 analyte concentrations, 100 to 500 nM were collected, and analyzed by nonlinear regression using the BIlAevaluation software (2.1)™. Association and dissociation data were fitted on the basis of the simple AB⇄A+B model.
human LTβR:Fc [5] = molecular target: T3, human LTβR:Fc (human, UniProt P36941 31-227, limits assumed); test: as above
T3 construct: Bivalent chimeric protein, previously described; also called huLTβR:Fc; hu LTβR:Fc; not shown: Fc region of human IgG1

LTβR (whole, in cells) = LTβR (whole, in cells) (human, UniProt P36941 31-435); test: cell-based or functional assay
murine LTβR:Fc = molecular target: B3; test: ELISA, plate-bound receptor:Fc, M2 anti-FLAG detection
Procedure: (§2) After washing with PBS/0.5% Tween, samples were applied diluted in PBS/3% BSA and incubated for 1 h at RT. After washing wells were incubated with monoclonal anti-FLAG (M2) (10 μg/ml in PBS/BSA) for 1 h at RT, washed and incubated with goat anti-mouse HRP (1:5000) for 1 hr at RT. […] The OD was measured at 415 nm in a SpectraMax plate reader (Molecular Devices Corp., Sunnyvale, Calif.).
murine HVEM:Fc = molecular target: T4, murine HVEM:Fc (mouse; human, UniProt Q80WM9 39-205; P01857 99-330 = IgG part); test: as above
T4 construct: range 1-205;domain: Fc region; Produced in TN5 insect cells, protein A purified, 58 kDa reduced; Encoded range includes the signal peptide; also called muHVEM:Fc; mouse HVEM:Fc
Procedure: as §2

human LTβR:Fc [6] = molecular target: T3, human LTβR:Fc; test: SPR (BIAcore 1000), receptor:Fc amine-coupled to CM5 chip, LIGHT mutant as analyte
Procedure: as §1

[7] = molecular target: B2; test: SPR
Procedure: as §1

[8] = molecular target: B2; test: ELISA, plate-bound receptor:Fc, M2 anti-FLAG detection
Procedure: as §2
TNFR60:Fc = molecular target: T5, TNFR60:Fc (human, UniProt P19438 30-211, limits assumed); test: precipitation from detergent extracts of activated II-23.D7 cells, SDS-PAGE and 2D electrophoresis
T5 construct: Previously described construct (Crowe 1994); also called TNFR:Fc; TNFR1-Fc; not shown: Fc region of human IgG1
T5 sequence (looked up): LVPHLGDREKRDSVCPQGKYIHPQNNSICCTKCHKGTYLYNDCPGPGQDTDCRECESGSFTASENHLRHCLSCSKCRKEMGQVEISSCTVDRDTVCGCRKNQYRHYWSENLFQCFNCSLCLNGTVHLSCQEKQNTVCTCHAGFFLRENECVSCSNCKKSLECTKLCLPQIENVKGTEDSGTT

T4 sequence (Q80WM9 other isoform, or with tags, fused parts or gaps): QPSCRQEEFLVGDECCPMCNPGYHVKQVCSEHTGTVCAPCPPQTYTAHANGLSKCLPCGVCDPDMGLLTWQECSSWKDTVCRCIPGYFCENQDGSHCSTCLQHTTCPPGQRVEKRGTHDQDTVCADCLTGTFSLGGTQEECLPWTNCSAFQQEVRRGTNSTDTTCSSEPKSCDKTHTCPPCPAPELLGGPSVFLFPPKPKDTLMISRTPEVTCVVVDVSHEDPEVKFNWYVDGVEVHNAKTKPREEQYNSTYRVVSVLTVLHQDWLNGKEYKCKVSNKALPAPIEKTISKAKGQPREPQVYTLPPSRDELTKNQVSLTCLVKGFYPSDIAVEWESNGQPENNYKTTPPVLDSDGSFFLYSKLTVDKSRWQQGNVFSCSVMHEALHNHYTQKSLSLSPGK
T3 sequence (P36941 31-227 limits assumed): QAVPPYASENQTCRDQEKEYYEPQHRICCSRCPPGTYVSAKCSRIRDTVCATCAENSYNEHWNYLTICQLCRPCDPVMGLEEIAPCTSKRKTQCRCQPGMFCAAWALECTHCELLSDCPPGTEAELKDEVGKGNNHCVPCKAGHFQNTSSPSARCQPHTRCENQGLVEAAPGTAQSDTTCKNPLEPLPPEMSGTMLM
Sequence of TNF (P01375 77-233 limits assumed): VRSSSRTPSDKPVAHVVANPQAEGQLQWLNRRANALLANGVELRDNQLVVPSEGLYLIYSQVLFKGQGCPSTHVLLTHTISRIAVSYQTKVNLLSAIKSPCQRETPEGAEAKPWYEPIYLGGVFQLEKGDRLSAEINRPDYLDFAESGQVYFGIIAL

For B1, the “IC50 for inhibition of HCMV pp28 expression (western blot)” value [1] was roughly 0.01 nM and the “anti-viral activity against LTα1β2 and LIGHT (pp28 expression)” value [1] was no less than 40 fold.

With B2 the EC50 [2] was roughly 20 nM, the binding result (TNF) was “no binding” and the binding result (LTα homotrimer) was “binds”.

B3: binds [3].

Binder B4 has a Kd [4] of 3.9 nM, a koff [4] of 4.8e-05 s⁻¹ and a kon [4] of 12000 M⁻¹ s⁻¹. For the same binder, the Kd (human LTβR:Fc [5]) was 4.5 nM, the koff (human LTβR:Fc [5]) was 0.00012 s⁻¹ and the kon (human LTβR:Fc [5]) was 27000 M⁻¹ s⁻¹. The “IC50 for inhibition of HCMV pp28 expression (western blot)” value (LTβR (whole, in cells)) was roughly 0.4 nM, the “up-regulation of ICAM expression by NHDF cells (flow cytometry, 36 h, 5 nM)” value (LTβR (whole, in cells)) was 4 fold and the “fold lower affinity than for the human receptor” value (murine LTβR:Fc) was 10 fold. For the same binder, the “fold lower affinity than for the human receptor” value (murine HVEM:Fc) was 10 fold.

B5 was tested, and the Kd [4] was 0.3 nM, the koff [4] was 5e-06 s⁻¹ and the kon [4] was 20000 M⁻¹ s⁻¹. For the same binder, the Kd (human LTβR:Fc [5]) was 1.5 nM, the koff (human LTβR:Fc [5]) was 4.5e-05 s⁻¹ and the kon (human LTβR:Fc [5]) was 32000 M⁻¹ s⁻¹.

In the case of B6, the Kd [4] is reported as 114 nM, the koff [4] is reported as 0.002 s⁻¹ and the kon [4] is reported as 18000 M⁻¹ s⁻¹. For the same binder, the binding result (human LTβR:Fc [6]) was “no binding (tested: 100 to 500 nM)”, the “fold lower affinity than LIGHT t66” value [7] was roughly 30 fold and the “up-regulation of ICAM expression by NHDF cells (flow cytometry, 36 h, 20 nM)” value (LTβR (whole, in cells)) was less than 1.5 fold. B6: no binding (murine LTβR:Fc); no binding (murine HVEM:Fc).

B7 showed a Kd [4] of 173 nM, a koff [4] of 0.0033 s⁻¹ and a kon [4] of 19000 M⁻¹ s⁻¹. For the same binder, the Kd (human LTβR:Fc [5]) was 31 nM, the koff (human LTβR:Fc [5]) was 0.0011 s⁻¹ and the kon (human LTβR:Fc [5]) was 37000 M⁻¹ s⁻¹. For the same binder, the Kd [7] was 180 nM, the “fold lower affinity than LIGHT t66” value [7] was greater than 40 fold and the “up-regulation of ICAM expression by NHDF cells (flow cytometry, 36 h, 20 nM)” value (LTβR (whole, in cells)) was 2.5 fold. B7: no binding (murine LTβR:Fc); no binding (murine HVEM:Fc).

B8: binds [8]; binds (murine LTβR:Fc).

B9: no binding (TNFR60:Fc).
